{"source": "patent US20230070339A1", "about": "(UNIVERSITY OF SOUTHAMPTON, published 2023)", "binders": {"B1": {"name": "LILRB3 mAb clone A16 (antibody, human IgG1, V domains shown)", "VH": "EVQLLESGGGLVQPGGSLRLSCAASGFTFSSYWMSWVRQAPGKGLEWVSRINTHGTNIDYADSVKGRFTISRDNSKNTLYLQMNSLRAEDTAVYYCVGVAGTGWFDPWGQGTLVTVSS", "VL": "QSVLTQPPSASGTPGQRVTISCTGSSSNIGAGYDVHWYQQLPGTAPKLLIYGNNNRPSGVPDRFSGSKSGTSASLAISGLRSEDEADYYCQSYDTSLSGSVFGGGTKLTVLG", "notes": "Fully human IgG1, full-length IgG; only variable domains tied to the clone; APC-labelled for staining of primary cells; deglycosylated in the T cell assay"}}, "target": "T1, LILRB3-hFc recombinant protein (human, UniProt O75022 24-443)", "T1 construct": "extracellular domain; also called LILRB-Fc; the extracellular LILRB3 domain with a human Fc tag; not shown: human Fc tag", "T1 sequence (O75022 24-443)": "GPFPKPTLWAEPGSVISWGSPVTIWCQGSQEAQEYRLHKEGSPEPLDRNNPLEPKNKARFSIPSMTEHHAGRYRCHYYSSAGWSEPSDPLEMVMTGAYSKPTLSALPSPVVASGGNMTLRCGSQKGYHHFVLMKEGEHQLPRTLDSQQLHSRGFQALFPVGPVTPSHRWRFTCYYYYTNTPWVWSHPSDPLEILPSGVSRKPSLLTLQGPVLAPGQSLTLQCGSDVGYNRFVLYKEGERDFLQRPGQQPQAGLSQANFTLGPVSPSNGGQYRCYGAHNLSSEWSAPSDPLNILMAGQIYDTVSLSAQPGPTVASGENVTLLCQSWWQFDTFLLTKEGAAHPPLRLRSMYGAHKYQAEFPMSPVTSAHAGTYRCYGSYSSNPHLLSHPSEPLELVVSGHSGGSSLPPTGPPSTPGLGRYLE", "assay": "SPR (Biacore T100), LILRB3-hFc amine-coupled on CM5 chip, mAb as analyte, 1:1 model", "procedure": "SPR was performed with the Biacore T100 (GE Healthcare, UK) as per the manufacturer's instructions. LILRB3-hFc recombinant protein (the extracellular LILRB3 domain with a human Fc tag) was used as the ligand and immobilized by amine coupling onto a series S sensor chip (CM5). Various LILRB3 mAb were used as “analytes” and flowed across the chip, and SPR measured.", "data": [{"binder": "B1", "values": [{"measurement": "Kd", "value": 0.816, "unit": "nM"}]}]}
